This note sets out measurements from article PMC12230644, “A Bacteriophage‐Derived Primase‐Helicase Orchestrates Plant Organellar DNA Replication” (Physiologia Plantarum, 2025).

Series [1] deals with AtPolIB (Arabidopsis thaliana organellar DNA polymerase IB) (Arabidopsis thaliana). Briefly: MST; fluorescently labelled AtPolIB (His‐tag labelling kit) at constant concentration, AtHelicase or AtHelicase‐Δ10 titrated; PBS with 0.05% Tween‐20; NanoTemper Monolith NT.115p; no DNA.
Series [2] deals with the molecule itself. Briefly: SEC; Superdex 200 gel filtration column calibrated with thyroglobulin, γ‐globulin, ovalbumin and myoglobin; in the absence of metal ions and nucleotides; size of the oligomer from the apparent mass. A general note: In gel filtration, larger molecules generally elute earlier.
In a further series the target is T1, AtTwinkle (Arabidopsis thaliana, UniProt B5X582 92-709).
T1 sequence: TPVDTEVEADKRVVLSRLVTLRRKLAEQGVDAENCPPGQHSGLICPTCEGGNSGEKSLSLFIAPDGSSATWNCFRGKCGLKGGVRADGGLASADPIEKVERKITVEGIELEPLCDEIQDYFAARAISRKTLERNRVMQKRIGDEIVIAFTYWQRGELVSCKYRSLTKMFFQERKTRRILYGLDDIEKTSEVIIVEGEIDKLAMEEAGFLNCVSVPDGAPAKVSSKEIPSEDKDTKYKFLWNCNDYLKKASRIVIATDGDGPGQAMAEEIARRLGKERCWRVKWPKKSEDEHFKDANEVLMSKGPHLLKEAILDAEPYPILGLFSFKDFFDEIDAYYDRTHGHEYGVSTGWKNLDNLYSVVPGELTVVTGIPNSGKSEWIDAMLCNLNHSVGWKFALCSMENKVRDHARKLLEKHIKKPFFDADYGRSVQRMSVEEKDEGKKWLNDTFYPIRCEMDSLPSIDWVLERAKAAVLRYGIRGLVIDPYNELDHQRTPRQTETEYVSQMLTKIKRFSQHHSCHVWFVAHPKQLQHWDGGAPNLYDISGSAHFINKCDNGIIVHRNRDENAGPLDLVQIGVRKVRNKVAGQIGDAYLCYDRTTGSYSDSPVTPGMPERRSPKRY
Briefly: EMSA; no polymerase; EMSA on 8% polyacrylamide gel; binding buffer, pH and temperature not given in the material (helicase assays: 20 mM Bis-Tris-Propane pH 7.5, 10 mM MgCl2, 10 mM). As to conditions: protein: recombinant; tags: His tag (pET19b; mutagenesis section names pCRI1b-AtTwinkle); chain copies: 6; label: OligoJ 5'-Cy2; fork, strands 1:2 (18 bp) and 2:3 (27 bp); 4 nt gap on template; 22 nt 5' ssDNA tail on strand 3.

The target of another series is AtTwinkle;AtPolIA (Arabidopsis thaliana;Arabidopsis …, UniProt B5X582;F4I6M1 92-709;92-1050, |). Briefly: EMSA; constant AtPolIA, high AtTwinkle; Cy2/Cy5 (orange) band at gel top, AtPolIA-DNA band disappears; EMSA on 8% polyacrylamide gel; binding buffer, pH and temperature not given in the material (helicase assays: 20 mM Bis-Tris-Propane pH 7.5, 10 mM MgCl2, 10 mM). To be noted: protein: recombinant;recombinant; tags: His tag (pET19b; mutagenesis section names pCRI1b-AtTwinkle);Cy5-labeled; label: OligoJ 5'-Cy2; fork, strands 1:2 (18 bp) and 2:3 (27 bp); 4 nt gap on template; 22 nt 5' ssDNA tail on strand 3. Background: In EMSA bound probe runs differently from free probe, usually more slowly.

The target in another series is T2, AtPolIA (Arabidopsis thaliana, UniProt F4I6M1 92-1050).
T2 sequence: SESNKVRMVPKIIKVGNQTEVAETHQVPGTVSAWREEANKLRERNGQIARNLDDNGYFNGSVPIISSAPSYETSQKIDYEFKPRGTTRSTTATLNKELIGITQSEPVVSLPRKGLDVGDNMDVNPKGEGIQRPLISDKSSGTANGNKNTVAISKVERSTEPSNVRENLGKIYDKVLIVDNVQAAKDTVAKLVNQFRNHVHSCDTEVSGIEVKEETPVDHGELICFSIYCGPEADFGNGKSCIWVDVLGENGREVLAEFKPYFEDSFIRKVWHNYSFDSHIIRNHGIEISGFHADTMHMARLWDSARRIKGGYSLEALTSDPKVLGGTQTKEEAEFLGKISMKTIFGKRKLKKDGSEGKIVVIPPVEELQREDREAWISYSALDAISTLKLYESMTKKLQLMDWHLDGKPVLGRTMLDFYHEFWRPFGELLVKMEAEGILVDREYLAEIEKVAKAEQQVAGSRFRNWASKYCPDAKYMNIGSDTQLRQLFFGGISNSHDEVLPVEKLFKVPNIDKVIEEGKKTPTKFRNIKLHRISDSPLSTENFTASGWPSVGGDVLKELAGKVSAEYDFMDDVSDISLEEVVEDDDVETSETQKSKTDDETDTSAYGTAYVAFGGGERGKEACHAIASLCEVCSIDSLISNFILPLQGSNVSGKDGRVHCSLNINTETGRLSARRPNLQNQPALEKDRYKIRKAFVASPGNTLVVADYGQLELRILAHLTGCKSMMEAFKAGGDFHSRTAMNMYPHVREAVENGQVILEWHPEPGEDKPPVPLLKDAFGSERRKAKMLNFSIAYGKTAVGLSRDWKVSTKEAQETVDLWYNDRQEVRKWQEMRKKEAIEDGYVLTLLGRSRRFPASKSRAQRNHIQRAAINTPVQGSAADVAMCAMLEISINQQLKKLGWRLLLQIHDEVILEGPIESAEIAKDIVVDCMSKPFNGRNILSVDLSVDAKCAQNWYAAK
Briefly: EMSA; no AtTwinkle; EMSA on 8% polyacrylamide gel; binding buffer, pH and temperature not given in the material (helicase assays: 20 mM Bis-Tris-Propane pH 7.5, 10 mM MgCl2, 10 mM). As to conditions: protein: recombinant; tags: Cy5-labeled; label: OligoJ 5'-Cy2; fork, strands 1:2 (18 bp) and 2:3 (27 bp); 4 nt gap on template; 22 nt 5' ssDNA tail on strand 3.

Values joined by “and” are separate entries in the source; they are usually repeats but may differ in a detail not shown here. Equal values may be shown once.

B1: AtHelicase (helicase domain of AtTwinkle) (domain or fragment, Arabidopsis thaliana, UniProt B5X582 402-709, looked up)
chain: ILDAEPYPILGLFSFKDFFDEIDAYYDRTHGHEYGVSTGWKNLDNLYSVVPGELTVVTGIPNSGKSEWIDAMLCNLNHSVGWKFALCSMENKVRDHARKLLEKHIKKPFFDADYGRSVQRMSVEEKDEGKKWLNDTFYPIRCEMDSLPSIDWVLERAKAAVLRYGIRGLVIDPYNELDHQRTPRQTETEYVSQMLTKIKRFSQHHSCHVWFVAHPKQLQHWDGGAPNLYDISGSAHFINKCDNGIIVHRNRDENAGPLDLVQIGVRKVRNKVAGQIGDAYLCYDRTTGSYSDSPVTPGMPERRSPKRY
notes: AtTwinkle, Arabidopsis thaliana, AT1G30680, helicase domain, residues 402-709; Modified pET28-SUMO vector; also called helicase module of AtTwinkle; wild‐type AtHelicase; source: E. coli BL21(DE3) with pKJ7 chaperones, purified (Ni‐NTA, heparin, Superdex 200)
Usually Kd stands for the constant that tells how readily two partners part at equilibrium. A lower Kd goes with higher affinity. Usually stoichiometry N stands for a count of units in the complex or per binding partner. The molecule B1 yielded a Kd in series [1] of 210 nM. Moreover, the “stoichiometry N” value in series [2] was found to be 6.

B2: AtHelicaseΔ10 (AtHelicase lacking the last 10 amino acids) (domain or fragment)
chain: ILDAEPYPILGLFSFKDFFDEIDAYYDRTHGHEYGVSTGWKNLDNLYSVVPGELTVVTGIPNSGKSEWIDAMLCNLNHSVGWKFALCSMENKVRDHARKLLEKHIKKPFFDADYGRSVQRMSVEEKDEGKKWLNDTFYPIRCEMDSLPSIDWVLERAKAAVLRYGIRGLVIDPYNELDHQRTPRQTETEYVSQMLTKIKRFSQHHSCHVWFVAHPKQLQHWDGGAPNLYDISGSAHFINKCDNGIIVHRNRDENAGPLDLVQIGVRKVRNKVAGQIGDAYLCYDRTTGSYSDSPVTPG
The molecule B2 had a Kd in series [1] of 3640 nM.

B3: replication fork OligoJ+OligoK+OligoL (mixed)
DNA 1: AGCTATGACCATGATTAC
DNA 2: AGCTACCATGCCTGCACGAATTAAGCAATTCGTAATCATGGTCATAGCT
DNA 3: CAACTGCTCCGATGCCTTACCGTGCTTAATTCGTGCAGGCATGGTAGCT
Turning to B3, the binding result with AtTwinkle, with AtTwinkle;AtPolIA and in the series with AtPolIA was “binds” each time.

B4: AtTwinkle (bacteriophage‐related primase‐helicase from Arabidopsis thaliana), processed form (enzyme, UniProt B5X582 92-709, looked up)
chain: TPVDTEVEADKRVVLSRLVTLRRKLAEQGVDAENCPPGQHSGLICPTCEGGNSGEKSLSLFIAPDGSSATWNCFRGKCGLKGGVRADGGLASADPIEKVERKITVEGIELEPLCDEIQDYFAARAISRKTLERNRVMQKRIGDEIVIAFTYWQRGELVSCKYRSLTKMFFQERKTRRILYGLDDIEKTSEVIIVEGEIDKLAMEEAGFLNCVSVPDGAPAKVSSKEIPSEDKDTKYKFLWNCNDYLKKASRIVIATDGDGPGQAMAEEIARRLGKERCWRVKWPKKSEDEHFKDANEVLMSKGPHLLKEAILDAEPYPILGLFSFKDFFDEIDAYYDRTHGHEYGVSTGWKNLDNLYSVVPGELTVVTGIPNSGKSEWIDAMLCNLNHSVGWKFALCSMENKVRDHARKLLEKHIKKPFFDADYGRSVQRMSVEEKDEGKKWLNDTFYPIRCEMDSLPSIDWVLERAKAAVLRYGIRGLVIDPYNELDHQRTPRQTETEYVSQMLTKIKRFSQHHSCHVWFVAHPKQLQHWDGGAPNLYDISGSAHFINKCDNGIIVHRNRDENAGPLDLVQIGVRKVRNKVAGQIGDAYLCYDRTTGSYSDSPVTPGMPERRSPKRY
notes: codon-optimised gene; The results call this construct 'full-length'; the methods give residues 92-709; The oligomer size is told differently in text (nonamer and a larger complex) and legend (hexamer), so copies is left empty; The methods name pET19b for cloning and pCRI1b-AtTwinkle for mutagenesis; also called plant Twinkle; full‐length AtTwinkle; source: E. coli BL21(DE3) with pKJ7 chaperones, …
Turning to B4, the “stoichiometry N” value in series [2] was 9 and 6.
